{"source": "paper PMC9882641", "about": "“Utilizing genetic code expansion to modify N-TIMP2 specificity towards MMP-2, MMP-9, and MMP-14” (Research Square, 2023)", "binders": {"B1": {"name": "N-TIMP2 (N-terminal domain of TIMP2) (domain or fragment, human, UniProt P16035 27-153, looked up)", "chain": "CSCSPVHPQQAFCNADVVIRAKAVSEKEVDSGNDIYGNPIKRIQYEIKQIKMFKGPEKDIEFIYTAPSSAVCGVSLDVGGKKEYLIAGKAEGDGKMHITLCDFIVPWDTLSTTQKKSLNHRYQMGCE", "notes": "numbers count on: the mature protein (Cys1 is the N-terminus); Cloned in the vector pMECS; also called wild-type N-TIMP2; parental N-TIMP2; source: E. coli WK6, periplasmic extract, purified (Ni-NTA)"}}, "experiment_in_all_cases": "enzyme inhibition assay (chromogenic substrate, fit to Morrison's tight binding equation); MMP-2ACT (0.6 nM), MMP-9CAT (3 nM) or MMP-14CAT (1 nM) incubated with 0-25 nM N-TIMP2 variant for 1 h at 37 C in 50 mM HEPES, 10 mM CaCl2, 0.05% Brij-35, 1 mM DTNB, pH 7.5; then 100 uM chromogenic substrate, absorbance at 412 nm; three independent experiments", "conditions_in_all_cases": "both partners purified", "key": {"[1]": {"target": "T1, activated MMP-2 (MMP-2ACT) (human, UniProt P08253 110-660)", "T1 sequence (looked up)": "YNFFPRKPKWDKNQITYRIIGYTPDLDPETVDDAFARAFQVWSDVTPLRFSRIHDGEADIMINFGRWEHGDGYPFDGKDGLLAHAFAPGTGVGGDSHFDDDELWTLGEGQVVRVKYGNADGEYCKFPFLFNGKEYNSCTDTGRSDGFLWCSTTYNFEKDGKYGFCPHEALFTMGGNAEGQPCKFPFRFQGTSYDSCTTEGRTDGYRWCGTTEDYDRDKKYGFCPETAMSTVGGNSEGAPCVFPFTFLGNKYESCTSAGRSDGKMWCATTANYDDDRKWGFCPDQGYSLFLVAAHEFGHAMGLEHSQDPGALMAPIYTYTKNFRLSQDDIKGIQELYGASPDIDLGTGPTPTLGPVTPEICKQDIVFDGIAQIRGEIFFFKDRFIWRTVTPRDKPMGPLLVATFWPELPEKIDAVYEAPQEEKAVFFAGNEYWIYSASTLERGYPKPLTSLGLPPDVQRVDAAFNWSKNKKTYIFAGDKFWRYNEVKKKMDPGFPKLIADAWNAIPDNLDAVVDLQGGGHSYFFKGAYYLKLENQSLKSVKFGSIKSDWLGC"}, "[2]": {"target": "T2, human MMP-9 catalytic domain (MMP-9CAT) (human, UniProt P14780 107-215; P14780 391-443)", "T2 construct": "Matrix metalloproteinase 9 (MMP-9), human, catalytic domain, residues 107-215 (first stretch; residues 216-390 left out); Matrix metalloproteinase 9 (MMP-9), human, catalytic domain, residues 391-443 (second stretch)", "T2 chain (looked up)": "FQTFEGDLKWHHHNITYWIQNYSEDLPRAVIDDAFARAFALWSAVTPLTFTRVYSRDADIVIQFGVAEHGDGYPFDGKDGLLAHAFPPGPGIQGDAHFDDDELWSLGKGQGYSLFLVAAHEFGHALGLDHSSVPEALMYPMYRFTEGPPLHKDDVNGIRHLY"}, "[3]": {"target": "T3, human MMP-14 catalytic domain (MMP-14CAT) (human, UniProt P50281 112-292)", "T3 construct": "Matrix metalloproteinase 14 (MMP-14), human, catalytic domain, residues 112-292"}}}
{"binder": "B1", "values": [{"measurement": "Ki", "setting": "[1]", "result": 0.233, "unit": "nM"}, {"measurement": "Ki", "setting": "[2]", "result": 0.322, "unit": "nM"}, {"measurement": "Ki", "setting": "[3]", "result": 0.711, "unit": "nM"}]}
